Consider one molecule from doi:10.1101/2022.10.17.512631 (bioRxiv, 2022).

This experiment concerns the target METTL3 (human, UniProt Q86U44 1-580). Briefly: SPR. (SPR reads the build-up and loss of mass on a sensor chip optically.)

METTL3, sequence (Q86U44 whole entry): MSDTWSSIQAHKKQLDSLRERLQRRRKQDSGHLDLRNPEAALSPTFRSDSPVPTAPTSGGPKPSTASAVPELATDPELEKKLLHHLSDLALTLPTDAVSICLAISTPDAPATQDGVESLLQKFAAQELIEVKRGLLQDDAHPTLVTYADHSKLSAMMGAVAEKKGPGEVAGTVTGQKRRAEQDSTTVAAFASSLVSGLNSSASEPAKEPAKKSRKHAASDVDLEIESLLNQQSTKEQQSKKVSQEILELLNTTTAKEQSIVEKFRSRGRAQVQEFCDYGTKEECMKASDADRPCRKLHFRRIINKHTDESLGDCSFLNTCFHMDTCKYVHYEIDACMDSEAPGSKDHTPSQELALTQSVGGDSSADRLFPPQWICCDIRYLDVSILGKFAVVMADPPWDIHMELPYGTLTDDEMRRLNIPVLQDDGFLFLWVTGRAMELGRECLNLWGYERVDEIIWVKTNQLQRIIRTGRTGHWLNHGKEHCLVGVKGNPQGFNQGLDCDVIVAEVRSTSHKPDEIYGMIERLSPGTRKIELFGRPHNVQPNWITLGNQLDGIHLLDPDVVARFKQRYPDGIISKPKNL

B1: HEXIM1 (natural protein)
chain: MAEPFLSEYQHQPQTSNCTGAAAVQEELNPERPPGAEERVPEEDSRWQSRAFPQLGGRPGPEGEGSLESQPPPLQTQACPESSCLREGEKGQNGDDSSAGGDFPPPAEVEPTPEAELLAQPCHDSEASKLGAPAAGGEEEWGQQQRQLGKKKHRRRPSKKKRHWKPYYKLTWEEKKKFDEKQSLRASRIRAEMFAKGQPVAPYNTTQFLMDDHDQEEPDLKTGLYSKRAAAKSDDTSDDDFMEEGGEEDGGSDGMGGDGSEFLQRDFSETYERYHTESLQNMSKQELIKEYLELEKCLSRMEDENNRLRLESKRLGGDDARVRELELELDRLRAENLQLLTENELHRQQERAPLSKFGD
As to B1, the Kd (in general, the equilibrium constant for the complex coming apart) was roughly 0.27 µM.
